Where no end group is shown, it is not given here. The star is where a group is joined. Biotin = O=C1N[C@H]2[C@H](CS[C@H]2CCCCC(=O)*)N1
T1: GST-Omi PDZ fusion protein (human, UniProt O43464 359-458)
T1 construct: also called GST-hOmiPDZ; hOmi PDZ domain; not shown: glutathione S-transferase (GST) encoded by plasmid pGEX6P-3
T1 sequence: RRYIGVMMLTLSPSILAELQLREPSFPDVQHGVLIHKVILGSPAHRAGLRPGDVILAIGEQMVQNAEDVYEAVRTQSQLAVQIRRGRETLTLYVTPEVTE

T2: phage-displayed Omi PDZ (phagemid p8hOmi) (human; M13 bacteriophage)
T2 construct: Multivalent display on phage; not shown: M13 gene-8 coat protein
T2 chain: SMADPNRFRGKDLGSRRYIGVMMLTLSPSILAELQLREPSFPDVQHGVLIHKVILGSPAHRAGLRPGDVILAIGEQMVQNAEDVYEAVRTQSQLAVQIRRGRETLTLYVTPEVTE


Columns and labels:
[1] = biological target: T1, GST-Omi PDZ fusion protein; assay: competition ELISA, immobilized biotin-GWTMFWV
Method: (§1) Affinity Assays—The binding affinities of peptides for Omi PDZ were determined as IC₅₀ values using a previously described competition ELISA(18). The IC₅₀ value was defined as the concentration of peptide that blocked 50% of PDZ domain binding to immobilized peptide. Assay plates were prepared by immobilizing an amino-terminally biotinylated peptide (biotin-GWTMFWV) on maxisorp plates coated with NeuTravidin and blocked with BSA. A fixed concentration of GST-Omi PDZ fusion protein (20 nM) in PBS, 0.5% BSA, 0.1% Tween 20 (PBT buffer) was preincubated for 1 h with serial dilutions of peptide and then transferred to the assay plates. After 1 h incubation, the plates were washed with PBS, 0.05% Tween 20, incubated for 30 min with HRP/anti-GST antibody (1:10,000) in PBT buffer, washed again, and detected with 3,3′,5,5′-Tetramethyl-benzidine/H₂O₂ (TMB) peroxidase substrate.

[2] = biological target: T1, GST-Omi PDZ fusion protein; assay: competition ELISA, 20 nM GST-Omi PDZ, immobilized biotin-GWTMFWV as competitor
Method: as §1

[3] = biological target: T1, GST-Omi PDZ fusion protein; assay: competition ELISA
Method: as §1

[4] = biological target: T2, phage-displayed Omi PDZ (phagemid …); assay: phage selection and phage ELISA on NeutrAvidin-immobilized peptide
Method: Library Sorting and Analysis—Phage from the libraries described above were propagated in E. coli XL1-blue with the addition of KO7 helper phage. After overnight growth at 37° C. (for peptide library) or 30° C. (for shotgun library), phage were concentrated by precipitation with PEG/NaCl and resuspended in PBS, 0.5% BSA, 0.1% Tween 20, as described previously(19). Phage solutions (10¹² phage/mL) were added to 96-well maxisorp immunoplates that had been coated with capture target and blocked with BSA. For shotgun library sorting, two different targets were used; for the display selection the target was an immobilized antibody that recognized the epitope tag fused to the N terminus of Omi PDZ, while for the function selection a biotinylated peptide that binds to Omi PDZ with high affinity (biotin-SWTMFWV) was immobilized on NeutrAvidin-coated plates. Following a 2 h incubation to allow for phage binding, the plates were washed 10 times with PBS, 0.05% Tween 20. Bound phage were eluted with 0.1 M HCl for 10 min and the eluent was neutralized with 1.0 M Tris base. Eluted phage were amplified in E. Coli XL1-blue and used for further rounds of selection.
Shotgun alanine-scanning of Omi PDZ domain—By superimposing the structure of Omi PDZ with the structure of Erbin PDZ-ligand complex(20), we identified a region that is directly involved or adjacent to the peptide binding site. […]

| Binder | binding result [1] | IC50 [2] | also measured |
| --- | --- | --- | --- |
| H-WWGGWLG-NH2 (also called WWGGWLG) [hOmi_n1_t7] | no binding | – | – |
| H-SHWWGG-NH2 (also called SHWWGG) [hOmi_n1_t3] | no binding | – | – |
| H-WGGWLG-NH2 (also called WGGWLG) [hOmi_n1_t8] | no binding | – | – |
| H-SHWWG-NH2 (also called SHWWG) [hOmi_n1_t4] | no binding | – | – |
| Ac-SWTMFWA-OH (also called SWTMFWA) [hOmi_c1_A1] | – | 10.6 µM | fold increase of IC50 vs SWTMFWV (hOmi_c1) [3]: 3 fold |
| Ac-GQYYFV-OH (synthetic peptide, optimized ligand reported previously from a chemically synthesized library; also called GQYYFV) [PDZ-Opt] | – | 17.6 µM | fold lower affinity vs the optimized peptide derived from libC (hOmi_c1) [3]: 5 fold |
| Ac-RFPHFWV-OH (synthetic peptide from libC; also called RFPHFWV) [hOmi_c2] | – | 162 µM | fold lower affinity vs SWTMFWV (hOmi_c1) [3]: 50 fold |
| H-HWWGGWLG-NH2 [hOmi_n1_t6] | – | – | fold reduction of binding affinity vs … (hOmi_n1) [3]: 3 fold |
| Biotin-SWTMFWV (Immobilized on NeutrAvidin-coated plates for shotgun library sorting) [biotin-SWTMFWV] | – | – | binding result [4]: binds |
| H-SHWW-NH2 (also called SHWW; tetrapeptide (SHWW)) [hOmi_n1_t5] | – | 72.2 µM | fold lower affinity vs … (hOmi_n1) [3]: 3 fold |
